Experimental data as given in patent publication US20190099499A1 (Pfizer, published 2019).

T1: human Fc-gamma receptor IIb (CD32b) (human, UniProt P31994 43-217)
T1 construct: Soluble receptor injected over captured antibody; also called FcγIIb(CD32b)
T1 sequence (looked up): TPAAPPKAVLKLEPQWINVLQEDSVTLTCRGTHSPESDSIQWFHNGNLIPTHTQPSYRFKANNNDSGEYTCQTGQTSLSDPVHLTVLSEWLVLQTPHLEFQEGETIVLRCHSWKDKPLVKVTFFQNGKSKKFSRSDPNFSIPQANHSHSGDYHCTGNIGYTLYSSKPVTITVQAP

T2: human Fc-gamma receptor IIa (CD32a) (human, UniProt P12318 34-217)
T2 construct: Soluble receptor injected over captured antibody; also called FcγIIa (CD32a)
T2 sequence (looked up): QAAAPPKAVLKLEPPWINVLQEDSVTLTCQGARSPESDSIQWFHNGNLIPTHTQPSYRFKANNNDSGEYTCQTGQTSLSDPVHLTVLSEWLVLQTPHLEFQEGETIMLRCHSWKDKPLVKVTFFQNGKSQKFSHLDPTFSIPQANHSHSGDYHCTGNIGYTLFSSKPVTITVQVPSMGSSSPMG

B1: CD33-(K334C/K392C) antibody (unconjugated) (antibody, human IgG1)
heavy: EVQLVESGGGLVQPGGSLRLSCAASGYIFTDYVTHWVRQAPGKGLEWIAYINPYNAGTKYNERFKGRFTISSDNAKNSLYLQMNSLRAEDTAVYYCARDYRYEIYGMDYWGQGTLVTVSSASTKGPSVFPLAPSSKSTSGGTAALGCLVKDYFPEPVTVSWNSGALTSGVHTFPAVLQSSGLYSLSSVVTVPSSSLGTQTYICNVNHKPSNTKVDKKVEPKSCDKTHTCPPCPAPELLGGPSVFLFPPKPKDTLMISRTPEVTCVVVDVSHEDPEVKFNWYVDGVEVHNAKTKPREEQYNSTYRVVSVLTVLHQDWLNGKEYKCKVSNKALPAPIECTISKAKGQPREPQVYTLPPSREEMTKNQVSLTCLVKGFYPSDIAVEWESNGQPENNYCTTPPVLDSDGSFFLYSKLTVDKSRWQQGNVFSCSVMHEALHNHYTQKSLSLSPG
light: DIQLTQSPSSLSASVGDRVTITCRASSSVGYMHWYQQKPGKAPKLLIYDTSQLASGVPSRFSGSGSGTDFTLTISSLQPEDFATYYCQLWSSNPLTFGGGTKVEIKRTVAAPSVFIFPPSDEQLKSGTASVVCLLNNFYPREAKVQWKVDNALQSGNSQESVTEQDSKDSTYSLSSTLTLSKADYEKHKVYACEVTHQGLSSPVTKSFNRGEC
notes: Human IgG1 with engineered Cys at heavy chain positions 334 and 392 (Eu index of Kabat); also called CD33-(K334C/K392C)-human IgG1 antibody
B2: CD33-(K334C/K392C)-CPI (CD33-(K334C/K392C)-MalPeg6-vc-PABC-DMAE-CPI ADC) (antibody, human IgG1)
heavy: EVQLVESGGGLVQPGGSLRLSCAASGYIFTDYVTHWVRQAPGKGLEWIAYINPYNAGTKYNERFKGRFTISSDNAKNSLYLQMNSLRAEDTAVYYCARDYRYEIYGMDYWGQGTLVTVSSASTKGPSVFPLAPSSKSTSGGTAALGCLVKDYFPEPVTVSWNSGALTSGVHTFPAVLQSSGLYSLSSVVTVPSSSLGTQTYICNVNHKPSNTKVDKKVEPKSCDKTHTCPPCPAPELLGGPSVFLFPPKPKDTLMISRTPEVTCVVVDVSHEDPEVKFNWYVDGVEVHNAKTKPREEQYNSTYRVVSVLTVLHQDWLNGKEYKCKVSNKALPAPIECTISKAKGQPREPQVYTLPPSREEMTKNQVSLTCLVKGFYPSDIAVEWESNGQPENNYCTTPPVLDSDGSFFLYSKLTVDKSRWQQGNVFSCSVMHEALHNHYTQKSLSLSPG
light: DIQLTQSPSSLSASVGDRVTITCRASSSVGYMHWYQQKPGKAPKLLIYDTSQLASGVPSRFSGSGSGTDFTLTISSLQPEDFATYYCQLWSSNPLTFGGGTKVEIKRTVAAPSVFIFPPSDEQLKSGTASVVCLLNNFYPREAKVQWKVDNALQSGNSQESVTEQDSKDSTYSLSSTLTLSKADYEKHKVYACEVTHQGLSSPVTKSFNRGEC
modifications: linker-payload MalPeg6-vc-PABC-DMAE-CPI (LP7) on engineered Cys 334 and Cys 392 (Eu index of Kabat); DAR 4.0
notes: Antibody drug conjugate, human IgG1

Legend:
[1] = molecular target: T3, human FcRn, biotinylated through an engineered Avi-tag (human, UniProt P55899 24-297; P61769 21-119); experiment: SPR (BIAcore), steady-state, pH 6.0; biotinylated human FcRn on streptavidin chip, antibody injected
T3 construct: not shown: engineered Avi-tag

[2] = molecular target: T4, human Fc-gamma receptor I (CD64) (human, UniProt P12314 16-288, limits assumed); experiment: SPR (BIAcore), antibody captured on immobilized CD33 ECD, receptor injected; kinetic fit
T4 construct: Soluble receptor injected over captured antibody; also called FcγRI (CD64)
Protocol: (§1) Various concentrations of the Fcγ receptors FcγIIa (CD32a), FcγIIb(CD32b), FcγIIIa (CD16a) and FcγRI (CD64) were injected over the surface and binding was determined.

[3] = molecular target: T1, human Fc-gamma receptor IIb (CD32b); experiment: SPR (BIAcore), antibody captured on immobilized CD33 ECD, receptor injected; steady state fit
Protocol: as §1

[4] = molecular target: T2, human Fc-gamma receptor IIa (CD32a); experiment: as above
Protocol: as §1

[5] = molecular target: T5, human Fc-gamma receptor IIIa (CD16a) (human, UniProt P08637 17-208); experiment: as above
T5 construct: Soluble receptor injected over captured antibody; also called FcγIIIa (CD16); FcγIIIa (CD16a)
Protocol: as §1

[6] = molecular target: T4, human Fc-gamma receptor I (CD64); experiment: SPR (BIAcore), ADC captured on immobilized CD33 ECD, receptor injected; kinetic fit
Protocol: as §1

[7] = molecular target: T3, human FcRn, biotinylated through an …; experiment: SPR (BIAcore), steady-state, pH 6.0; biotinylated human FcRn on streptavidin chip, ADC injected
Description: BIAcore® technology utilizes changes in the refractive index at the surface layer of a sensor upon binding of the anti-CD33 derived monoclonal antibodies or their respective ADCs to human FcRn protein immobilized on the layer. Binding was detected by surface plasmon resonance (SPR) of laser light refracting from the surface. Human FcRn was specifically biotinylated through an engineered Avi-tag using the BirA reagent (Catalog #: BIRA500, Avidity, LLC, Aurora, Colo.) and immobilized onto a streptavidin (SA) sensor chip to enable uniform orientation of the FcRn protein on the sensor.

[8] = molecular target: T1, human Fc-gamma receptor IIb (CD32b); experiment: SPR (BIAcore), ADC captured on immobilized CD33 ECD, receptor injected; steady state fit
Protocol: as §1

[9] = molecular target: T2, human Fc-gamma receptor IIa (CD32a); experiment: as above
Protocol: as §1

[10] = molecular target: T5, human Fc-gamma receptor IIIa (CD16a); experiment: as above
Protocol: as §1

T3 sequence (P55899 24-297 limits assumed, change not shown, chain 1 of 2): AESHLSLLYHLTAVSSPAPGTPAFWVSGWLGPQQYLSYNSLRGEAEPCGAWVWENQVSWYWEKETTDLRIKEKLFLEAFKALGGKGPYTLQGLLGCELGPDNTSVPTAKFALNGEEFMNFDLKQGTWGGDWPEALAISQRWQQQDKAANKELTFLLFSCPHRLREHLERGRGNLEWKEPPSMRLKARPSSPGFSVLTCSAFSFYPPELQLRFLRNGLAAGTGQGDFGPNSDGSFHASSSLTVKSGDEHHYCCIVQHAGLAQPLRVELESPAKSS
T3 sequence (P61769 21-119 limits assumed, change not shown, chain 2 of 2): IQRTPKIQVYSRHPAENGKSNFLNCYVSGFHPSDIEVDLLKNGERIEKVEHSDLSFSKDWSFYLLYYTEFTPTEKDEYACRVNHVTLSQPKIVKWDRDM
T5 sequence (P08637 17-208 limits assumed): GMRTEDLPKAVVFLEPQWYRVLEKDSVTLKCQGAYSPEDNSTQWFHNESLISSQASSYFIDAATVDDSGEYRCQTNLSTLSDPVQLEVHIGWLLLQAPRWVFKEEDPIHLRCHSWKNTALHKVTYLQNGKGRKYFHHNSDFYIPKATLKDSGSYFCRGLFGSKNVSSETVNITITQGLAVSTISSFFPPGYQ
T4 sequence (P12314 16-288 limits assumed): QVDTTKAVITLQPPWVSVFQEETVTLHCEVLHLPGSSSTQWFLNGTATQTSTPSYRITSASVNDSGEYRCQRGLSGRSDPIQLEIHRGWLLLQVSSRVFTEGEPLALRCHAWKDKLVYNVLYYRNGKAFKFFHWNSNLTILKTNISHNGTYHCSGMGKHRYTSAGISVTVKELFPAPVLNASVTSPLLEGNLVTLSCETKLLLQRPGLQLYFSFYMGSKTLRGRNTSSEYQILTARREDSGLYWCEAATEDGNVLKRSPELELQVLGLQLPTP

Binder | Kd [1] | Kd [2] | Kd [3] | Kd [4] | Kd [5] | Kd [6] | Kd [7] | Kd [8] | Kd [9] | Kd [10]
B1 | 964 nM | 0.02 nM | 3460 nM | 900 nM | 210 nM |  |  |  |  | 
B2 |  |  |  |  |  | 0.17 nM | 1220 nM | 20100 nM | 12900 nM | 5650 nM
